{"source": "patent US20210115152A1", "about": "(ARBELE, published 2021)", "key": {"CD3 on Jurkat T cells": {"target": "CD3 on Jurkat T cells (UniProt P07766 23-207)", "sequence (P07766 23-207)": "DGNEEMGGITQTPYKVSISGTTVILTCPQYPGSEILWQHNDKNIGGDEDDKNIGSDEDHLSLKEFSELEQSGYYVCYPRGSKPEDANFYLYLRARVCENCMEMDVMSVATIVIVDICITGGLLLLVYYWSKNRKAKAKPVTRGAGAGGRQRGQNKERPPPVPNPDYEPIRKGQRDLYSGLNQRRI", "assay": "cell-based or functional assay"}, "[1]": {"target": "T1, CDH17 on tumor cells (DLD-1, AGS, AsPC1, CDH17-positive pancreatic and colon lines, SW40 with ectopic CDH17) (UniProt Q12864 23-832, limits assumed)", "T1 sequence (looked up)": "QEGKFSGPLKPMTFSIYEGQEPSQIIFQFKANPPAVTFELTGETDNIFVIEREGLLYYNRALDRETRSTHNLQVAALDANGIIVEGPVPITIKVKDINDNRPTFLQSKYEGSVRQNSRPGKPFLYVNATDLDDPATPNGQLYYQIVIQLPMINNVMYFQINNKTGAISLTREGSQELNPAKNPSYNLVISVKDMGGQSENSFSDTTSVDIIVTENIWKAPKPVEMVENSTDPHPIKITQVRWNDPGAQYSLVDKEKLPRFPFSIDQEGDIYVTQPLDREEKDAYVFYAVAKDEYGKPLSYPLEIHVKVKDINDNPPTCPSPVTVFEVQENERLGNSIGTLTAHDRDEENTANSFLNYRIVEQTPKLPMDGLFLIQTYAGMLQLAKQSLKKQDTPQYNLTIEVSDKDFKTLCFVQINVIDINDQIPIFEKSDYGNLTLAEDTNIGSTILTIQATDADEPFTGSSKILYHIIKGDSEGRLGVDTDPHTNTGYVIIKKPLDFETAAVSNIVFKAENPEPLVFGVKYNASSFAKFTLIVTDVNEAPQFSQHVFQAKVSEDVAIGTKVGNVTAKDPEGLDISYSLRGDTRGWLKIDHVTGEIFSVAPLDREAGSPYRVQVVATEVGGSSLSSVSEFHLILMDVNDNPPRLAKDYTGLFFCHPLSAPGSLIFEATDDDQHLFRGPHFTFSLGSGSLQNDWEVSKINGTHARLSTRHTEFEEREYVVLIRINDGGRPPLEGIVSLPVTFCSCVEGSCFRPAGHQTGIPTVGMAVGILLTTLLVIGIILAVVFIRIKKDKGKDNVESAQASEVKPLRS", "assay": "cell-based or functional assay"}}, "data": [{"binder": "h10G4fL (h10G4U1fL; ARB202), CDH17xCD3 bispecific antibody of the IgG-scFv / fL design, IgG4 (bispecific antibody) heavy: EVQLVESGGGLVQPGGSLRLSCAASGFTFSSYAMSWVRQTPGKGLEWVAVIDSNGGSTYYPDTVKDRFTISRDNSKNTLYLQMNSLRAEDTAVYYCSSYTNLGAYWGQGTLVTVSSASTKGPSVFPLAPSSKSTSGGTAALGCLVKDYFPEPVTVSWNSGALTSGVHTFPAVLQSSGLYSLSSVVTVPSSSLGTQTYICNVNHKPSNTKVDKRVEPKSCDKTHTCPPCPAPELLGGPSVFLFPPKPKDTLMISRTPEVTCVVVDVSQEDPEVQFNWYVDGVEVHNAKTKPREEQFNSTYRVVSVLTVLHQDWLNGKEYKCKVSNKGLPSSIEKTISKAKGQPREPQVYTLPPSQEEMTKNQVSLTCLVKGFYPSDIAVEWESNGQPENNYKTTPPVLDSDGSFFLYSRLTVDKSRWQEGNVFSCSVMHEALHNHYTQKSLSLSLGKPAGGGGSEVQLVESGGGLVQPGGSLRLSCAASGYSFTGYTMNWVRQAPGKGLEWVALINPYKGVSTYNQKFKDRFTISVDKSKNTAYLQMNSLRAEDTAVYYCARSGYYGDSDWYFDVWGQGTLVTVSSGGGGSGGGGSGGGGSDIQMTQSPSSLSASVGDRVTITCRASQDIRNYLNWYQQKPGKAPKLLIYYTSRLESGVPSRFSGSGSGTDYTLTISSLQPEDFATYYCQQGNTLPWTFGQGTKVEIK light: DIQMTQSPSSLSASVGDRVTITCRASQDISGYLNWLQQKPGGAIKRLIYTTSTLDSGVPKRFSGSGSGTDFTLTISSLQSEDFATYYCLQYASSPFTFGGGTKVEIKRTVAAPSVFIFPPSDEQLKSGTASVVCLLNNFYPREAKVQWKVDNALQSGNSQESVTEQDSKDSTYSLSSTLTLSKADYEKHKVYACEVTHQGLSSPVTKSFNRGEC", "values": [{"measurement": "EC50 of IL2 production by PBMC in the absence of AsPC1 tumor cells", "setting": "CD3 on Jurkat T cells", "value": "≥ 18.7", "unit": "nM"}, {"measurement": "EC50 of IL2 production by PBMC in the presence of AsPC1 tumor cells (5:1, 16 hours)", "setting": "[1]", "value": 0.03, "unit": "nM"}]}]}
